Publication PMC6159516 (Nucleic Acids Research, 2018)
Positions count from the first letter of the chain named. Names may count otherwise. Blank lines part the entries; values can stand above or below the molecule they belong to.

Assays:
[1] = target: FANCJ-R707C with a C-terminal FLAG tag (human) (UniProt Q9BX63)
FANCJ-WT = target: T1, FANCJ-WT (Homo sapiens, UniProt Q9BX63 1-1249); assay: EMSA; 5 mM Mg2+, no ATP; EMSA: 40 mM Tris-HCl pH 7.4, 25 mM KCl, 5 mM MgCl2, 2 mM DTT, 2% glycerol, 100 ng/ul BSA, no ATP, 0.5 nM DNA, 24 C 30 min; native 5% PAGE in 1x TBE at 4 C
T1 sequence: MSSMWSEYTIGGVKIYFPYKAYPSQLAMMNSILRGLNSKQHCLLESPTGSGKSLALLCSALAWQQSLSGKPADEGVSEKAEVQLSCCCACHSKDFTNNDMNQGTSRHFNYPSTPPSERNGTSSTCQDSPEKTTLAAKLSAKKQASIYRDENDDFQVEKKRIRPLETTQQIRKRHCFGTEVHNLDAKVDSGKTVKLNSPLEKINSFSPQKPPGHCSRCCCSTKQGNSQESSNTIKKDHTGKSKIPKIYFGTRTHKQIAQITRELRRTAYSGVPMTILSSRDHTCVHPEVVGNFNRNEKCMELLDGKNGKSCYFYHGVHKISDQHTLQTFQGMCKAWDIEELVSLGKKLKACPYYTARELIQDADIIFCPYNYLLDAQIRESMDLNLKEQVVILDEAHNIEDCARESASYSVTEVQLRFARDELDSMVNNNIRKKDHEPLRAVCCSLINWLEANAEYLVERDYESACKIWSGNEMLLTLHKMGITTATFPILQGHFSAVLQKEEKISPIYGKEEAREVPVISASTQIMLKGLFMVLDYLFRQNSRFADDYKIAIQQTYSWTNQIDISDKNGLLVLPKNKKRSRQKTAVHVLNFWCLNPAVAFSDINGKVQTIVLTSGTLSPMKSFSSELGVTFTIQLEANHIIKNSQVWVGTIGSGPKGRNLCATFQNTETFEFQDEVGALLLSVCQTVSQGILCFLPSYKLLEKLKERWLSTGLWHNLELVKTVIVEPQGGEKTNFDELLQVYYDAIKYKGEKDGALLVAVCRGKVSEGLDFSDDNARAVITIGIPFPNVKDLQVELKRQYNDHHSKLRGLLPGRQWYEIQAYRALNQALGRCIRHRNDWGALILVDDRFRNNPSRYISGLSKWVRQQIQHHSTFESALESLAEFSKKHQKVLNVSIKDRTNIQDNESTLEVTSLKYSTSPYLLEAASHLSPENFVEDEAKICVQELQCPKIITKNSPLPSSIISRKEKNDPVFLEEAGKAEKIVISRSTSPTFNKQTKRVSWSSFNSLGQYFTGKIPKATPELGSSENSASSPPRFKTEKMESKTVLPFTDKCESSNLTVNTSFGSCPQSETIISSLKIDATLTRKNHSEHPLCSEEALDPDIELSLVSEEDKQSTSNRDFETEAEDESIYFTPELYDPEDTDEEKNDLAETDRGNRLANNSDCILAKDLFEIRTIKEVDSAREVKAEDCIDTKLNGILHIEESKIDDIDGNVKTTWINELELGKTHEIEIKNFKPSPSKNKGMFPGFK

[2] = target: T2, FANCJ-wild type (WT) with a C-terminal FLAG tag (human), Q9BX63; assay: SEC; purified recombinant FANCJ applied to a Superdex-200 column on an AKTA FPLC, UV detection, calibrated with molecular mass markers; dimer and monomer peaks; settings: remark: other sources report otherwise
T2 chain: T1 sequence

[3] = target: the molecule itself; assay: as above

Molecule: TTTTTTTTTTTTTTTTTTTTTTCCCAGTAAAACGACGGCCAGTGC (ssDNA) [single-stranded 45-mer (DC26)]
binding result (FANCJ-WT): binds

B2: FANCJ-H396D with a C-terminal FLAG tag (enzyme, human, UniProt Q9BX63 1-1249, looked up)
chain: T1 sequence with H396D
stoichiometry N [3]: 2

Second part, the molecule after the results:

percent of 34 bp forked duplex DNA substrate (0.5 nM) unwound by FANCJ-R707C (20 nM) with increasing RPA, up to 8 nM, 30°C, 15 min (stimulation of helicase activity by RPA) [1]: 45%
Molecule: RPA (complex)

stoichiometry N [2]: 2
B1: FANCJ-wild type (WT) with a C-terminal FLAG tag, Q9BX63 1-1249 (enzyme)
chain: T1 sequence
